In PMC9006656:
One block for each substance: values may come before it.

Assays:
[1] = target: hu4D5 full-length human IgG1 antibody with wild-type Fc (human); assay: BLI; antibody captured on anti-CH1 FAB2G tips; FcγRIIIa V158 (62.5-2000 nM) or F158 (156-5000 nM) in solution, pH 7.4; 1:1 model, full association and initial 5 s of dissociation; Kd = koff/kon; observed values
[2] = target: hu4D5 full-length human IgG1 antibody with acid-Fc (human); assay: as above
[3] = target: hu4D5 full-length human IgG1 antibody with wild-type Fc (human); assay: BLI; same FAB2G experiment at pH 7.4, steady state analysis: equilibrium responses fit to a Langmuir isotherm; apparent
[4] = target: hu4D5 full-length human IgG1 antibody with acid-Fc (human); assay: as above
[5] = target: hu4D5 full-length human IgG1 antibody with wild-type Fc (human); assay: BLI; same FAB2G experiment at pH 6.5, steady state analysis: equilibrium responses fit to a Langmuir isotherm; apparent
[6] = target: hu4D5 full-length human IgG1 antibody with acid-Fc (human); assay: as above
[7] = target: hu4D5 full-length human IgG1 antibody with wild-type Fc (human); assay: BLI; antibody captured on anti-CH1 FAB2G tips; FcγRIIIa V158 (62.5-2000 nM) or F158 (156-5000 nM) in solution, pH 6.5; 1:1 model, full association and initial 5 s of dissociation; Kd = koff/kon; observed values
[8] = target: hu4D5 full-length human IgG1 antibody with acid-Fc (human); assay: as above
[9] = target: GST-tagged human FcRn-β2m (human) (UniProt P55899)
[10] = target: wild-type human IgG1 Fc displayed on the CHO cell surface (human); assay: flow cytometry on cells; Fc variants displayed on CHO-T cells as monoclonal populations; stained with monomeric FcγRIIIa V158 on fluorescent streptavidin (50 nM in Fig. 7A) in flow buffer at pH 6.5; percent of cells binding
Chain of wild-type human IgG1 Fc displayed on the CHO cell surface (human) (P01857 1-350): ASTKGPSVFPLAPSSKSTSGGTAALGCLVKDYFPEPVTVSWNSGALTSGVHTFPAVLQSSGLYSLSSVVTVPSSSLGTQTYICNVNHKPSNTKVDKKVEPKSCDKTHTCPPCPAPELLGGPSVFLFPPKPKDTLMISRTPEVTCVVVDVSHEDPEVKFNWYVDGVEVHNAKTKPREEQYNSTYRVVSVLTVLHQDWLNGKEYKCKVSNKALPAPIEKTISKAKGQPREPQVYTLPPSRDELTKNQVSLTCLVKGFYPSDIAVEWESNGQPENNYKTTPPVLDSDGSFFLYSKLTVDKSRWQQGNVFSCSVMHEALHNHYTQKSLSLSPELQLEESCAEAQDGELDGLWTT

Kd [1]: 484 nM
koff [1]: 0.134 s⁻¹
kon [1]: 280000 M⁻¹ s⁻¹
Kd [2]: 909 nM
koff [2]: 0.226 s⁻¹
kon [2]: 250000 M⁻¹ s⁻¹
Kd [3]: 513 nM
Kd [4]: 1090 nM
Kd [5]: 418 nM
Kd [6]: 603 nM
Kd [7]: 401 nM
koff [7]: 0.119 s⁻¹
kon [7]: 300000 M⁻¹ s⁻¹
Kd [8]: 538 nM
koff [8]: 0.177 s⁻¹
kon [8]: 340000 M⁻¹ s⁻¹
Substance: human FcγRIIIa F158, AVI and His tagged, biotinylated (from UniProt P08637 17-254) (receptor)

serum beta elimination half-life (t1/2) in homozygous Tg32 mice expressing human FcRn, increase as compared to wild-type [9]: 1.4 fold
Substance: hu4D5 human IgG1 antibody with the M252Y/S254T/T256E (YTE) substitutions

serum beta elimination half-life (t1/2) in homozygous Tg32 mice expressing human FcRn, 2 mg/kg intraperitoneally [9]: 209 h
Substance: hu4D5 full-length human IgG1 antibody with wild-type Fc

ratio of the percent of cells binding at pH 6.5 versus the percent binding at pH 7.4 [10]: 1
Substance: biotinylated FcγRIIIa (allele V158) monomerically bound to fluorescent streptavidin (receptor)
